Reference: US20240252689A1, “POLY-ADP RIBOSE (PAR) TRACKER OPTIMIZED SPLIT-PROTEIN REASSEMBLY PAR DETECTION REAGENTS” (THE BOARD OF REGENTS OF THE UNIVERSITY OF TEXAS SYSTEM, priority 2021, published 2024)

What was measured:
PARylated PARP-1 = PARylated PARP-1 (Homo sapiens, UniProt P09874); assay: In vitro ADP-ribosylation assay with ARBD-ddGFP pairs, recombinant PARP-1; type: biochemical; settings: ARBD fused to ddGFP-A/B, recombinant proteins
From the text: Dimerization-dependent GFP is a genetically encoded sensor that was initially developed to study protein interactions. In this system, a pair of a quenched GFP (ddGFPA) and a non-fluorogenic GFP (ddGFPB) form a heterodimer that can result in improved fluorescence. In this example, a ddGFP-based fluorescence sensor (fluorescent PAR-Trackers or PAR-T) was designed to allow for live cell imaging, with high signal-noise ratio. To achieve this, the various ADPR reader domains (ARBDs) were fused to ddGFP-A/B and purified as recombinant proteins (FIG. 1A, FIG. 1B, FIG. 6A). In vitro ADP-ribosylation assays were performed using recombinant PARP-1 (to detect PAR) and PARP-3 (to detect MAR) specifically (FIG. 6B and FIG. 6C). […] These reagents recognized PARylated-PARP-1 but not MARylated PARP-3, or the precursors of ADPR (FIG. 1C). Accordingly, the utility of these reagents was further tested in in vitro PARP-1 PARylation reactions with increasing concentrations of NAD+(FIGS. 6F and 6G) and increasing time of reaction (FIG. 1D and FIG. 1E). Similarly, degradation of PAR chains by ARH3 was detected in a time (FIG. 1F and FIG. 1G) and dose (FIG. 6H) dependent way. Further, in vitro reactions were performed by incubating the recombinant PAR-T sensors and lysates from Hela cells treated with H2O2 to induce DNA damage and activate PARP-1.

PARP-1 activation = assay: Live cell imaging with ddGFP PAR-T after H2O2-mediated PARP-1 activation; type: cell-based; settings: cells treated with H2O2, compared to ddGFP alone
Method: Cells were treated with various inhibitors as described herein. For inhibition of nuclear PARPs, cells were treated with PJ-34 ([…]; Enzo, ALX-270) or Olaparib (20 µM; MedChem Express, HY-10162) for 2 hours. For inhibition of PARG, cells were treated with PDD 00017273 (20 µM; MedChem Express, HY-108360) for 2 hours. For UV-induced DNA damage, the cells were harvested 15 minutes after treatment with 50 mJ/cm2 UV irradiation.
Having confirmed the specificity of the PAR-T sensors, their utility in live cell imaging was then tested. PAR-T sensors were expressed in Hela cells in a doxycycline-dependent manner and live cell imaging performed after subjecting the cells to H2O2-mediated PARP-1 activation (FIG. 7A). This PAR-T construct also expresses mCherry with nuclear localization signal (NLS) to illuminate the nuclei and act as a control for variability in expression of the constructs (FIG. 7A). […] Using the WWE-based ddGFP PAR-T construct, accumulation of PAR after H2O2-treatment was detected in real time.
Next, a set of assays was performed to compare the performance of the PAR-T sensors to conventional PAR detection reagents (WWE-Fc and PAR antibody) in a variety of assays. […]

Sequence of PARylated PARP-1 (P09874 whole entry, the tested form may be a part): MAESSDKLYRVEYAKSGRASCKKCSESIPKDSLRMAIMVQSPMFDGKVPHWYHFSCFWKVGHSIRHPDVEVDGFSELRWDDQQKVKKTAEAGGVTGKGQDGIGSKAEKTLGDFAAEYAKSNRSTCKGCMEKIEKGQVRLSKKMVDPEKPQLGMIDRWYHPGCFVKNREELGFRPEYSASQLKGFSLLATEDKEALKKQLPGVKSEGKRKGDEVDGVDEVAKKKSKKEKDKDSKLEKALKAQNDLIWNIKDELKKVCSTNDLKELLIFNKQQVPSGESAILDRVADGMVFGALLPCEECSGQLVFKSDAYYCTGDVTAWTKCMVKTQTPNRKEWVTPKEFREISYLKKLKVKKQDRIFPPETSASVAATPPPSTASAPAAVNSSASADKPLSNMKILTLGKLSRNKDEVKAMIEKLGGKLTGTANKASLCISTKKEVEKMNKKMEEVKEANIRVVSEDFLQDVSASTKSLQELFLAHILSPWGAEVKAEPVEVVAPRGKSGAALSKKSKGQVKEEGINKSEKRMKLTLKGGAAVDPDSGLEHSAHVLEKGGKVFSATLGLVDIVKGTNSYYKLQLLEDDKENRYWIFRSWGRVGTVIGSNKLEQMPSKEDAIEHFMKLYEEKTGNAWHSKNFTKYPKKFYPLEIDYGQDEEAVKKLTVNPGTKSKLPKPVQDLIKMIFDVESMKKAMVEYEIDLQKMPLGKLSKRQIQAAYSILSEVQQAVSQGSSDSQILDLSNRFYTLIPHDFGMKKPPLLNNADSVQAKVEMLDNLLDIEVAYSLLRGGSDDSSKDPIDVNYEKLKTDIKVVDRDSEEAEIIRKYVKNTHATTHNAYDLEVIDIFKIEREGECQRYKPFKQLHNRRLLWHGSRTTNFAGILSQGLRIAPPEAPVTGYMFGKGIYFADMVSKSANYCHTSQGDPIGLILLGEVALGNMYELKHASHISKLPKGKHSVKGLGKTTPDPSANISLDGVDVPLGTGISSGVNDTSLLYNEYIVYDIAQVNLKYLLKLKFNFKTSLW

B1: macrodomain from AF1521: macrodomain from AF1521 fused to ddGFP-A/B, recombinant ARBD-ddGFP pair (protein, listed as Archaeoglobus fulgidus)
chain: MERRTLIMEVLFEAKVGDITLKLAQGDITQYPAKAIVNAANKRLEHGGGVAYAIAKACAGDAGLYTEISKKAMREQFGRDYIDHGEVVVTPAMNLEERGIKYVFHTVGPICSGMWSEELKEKLYKAFLGPLEKAEEMGVESIAFPAVSAGIYGCDLEKVVETFLEAVKNFKGSAVKEVALVIYDRKSAEVALKVFERSL
recognizing PARylated PARP-1 (fluorescence) (PARylated PARP-1): performed well
recognizing PARylated PARP-1 (fluorescence) (PARylated PARP-1; listed as macrodomain): worked better

B2: WWE-macrodomain combination sensor: ddGFP sensor pair combining WWE domain from RNF146 and macrodomain from AF1521 (protein)
chain 1: MGNGEYAWYYEGRNGWWQYDERTSRELEDAFSKGKKNTEMLIAGFLYVADLENMVQYRRNEHGRRRKIKRDIIDIPKKGVAGLR
chain 2: B1 chain
modifications: left off: small tags and cut ends
notes: ddGFP sensor pair combining WWE domain from RNF146 and macrodomain from AF1521
recognizing PARylated PARP-1 (fluorescence) (PARylated PARP-1): able to detect PARylation in vitro
detection of PARP-1 activation / PARylation in live cell imaging (PARP-1 activation): failed to recognize PARylation in cells

B3: PAR-T ddGFP: WWE domain from RNF146 fused to dimerization-dependent GFP monomers ddGFP-A and ddGFP-B (protein)
chain 1: MGHHHHHHHHHHSSGHIDDDDKHMLEGNGEYAWYYEGRNGWWQYDERTSRELEDAFSKGKKNTEMLIAGFLYVADLENMVQYRRNEHGRRRKIKRDIIDIPKKGVAGLRLEFSTGHGTGSTGSGSSGTASSESTGSSMASKSEEVIKEFMRFKVRLEGSMNGHEFEIEGEGEGRPYEGTQTAKLKVTKGGPLPFAWDILSPLIMYGSKMYVKHPADVPDYMKLSFPEGFKWERVMHFEDGGLVTATQDSSLQDGTLIYKVKMRGTNFPPDGPVMQKKTLGWDYATERLYPEEGVLKGELLGRLKLKDGGLNLVESKTIYMAKKPVQLPGYYFVDTKLDITSHNEDYTIVEQYERSEGRHHLGH
chain 2: MGHHHHHHHHHHSSGHIDDDDKHMLEGNGEYAWYYEGRNGWWQYDERTSRELEDAFSKGKKNTEMLIAGFLYVADLENMVQYRRNEHGRRRKIKRDIIDIPKKGVAGLRLEFSTGHGTGSTGSGSSGTASSESTGSSTIKEFMRFKVRMEGSMNGHEFEIEGEGEGRPYEGTQTAKLKVTKGGPLPFAWDILSPQIMYGSKAYVRHPADIPDYKKLPFPEGFKWERVMNFEDGGLVTVTQDSSLQDGTLICKVKIRGTNFPPDGPVMQKKTMGWEASTEMLYPKDGVLKGHSYQALKLKDGGHYLVEFETIYMAKKPVQLPGDYCVDTKLDITSHNEDYTIVEQYGRSEGRHRLGMDERYK
recognizing PARylated PARP-1 (fluorescence) (PARylated PARP-1; listed as WWE domain): worked better
recognizing PARylated PARP-1 (fluorescence) (PARylated PARP-1; listed as WWE domain from RNF146): performed well
detection of PARP-1 activation / PARylation in live cell imaging (PARP-1 activation): detected PARP-1 activation
